Target: GFP-αA-crystallin (UniProt P02489 2-173)
Assay: cell-based or functional assay

Sequence of GFP-αA-crystallin (P02489 2-173): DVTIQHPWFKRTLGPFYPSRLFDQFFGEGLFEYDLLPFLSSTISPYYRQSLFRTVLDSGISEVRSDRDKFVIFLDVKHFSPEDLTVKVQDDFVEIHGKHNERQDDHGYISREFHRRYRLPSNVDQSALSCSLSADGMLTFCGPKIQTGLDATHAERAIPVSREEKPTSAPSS

B1: RED-αB-crystallin (natural protein, UniProt P02511 2-175, looked up)
chain: DIAIHHPWIRRPFFPFHSPSRLFDQFFGEHLLESDLFPTSTSLSPFYLRPPSFLRAPSWFDTGLSEMRLEKDRFSVNLDVKHFSPEELKVKVLGDVIEVHGKHEERQDEHGFISREFHRKYRIPADVDPLTITSSLSSDGVLTVNGPRKQVSGPERTIPITREEKPAVTAAPKK
percentage of HeLa cells with protein aggregates, cotransfection of GFP-αA- and RED-αB-crystallin against RED-αB-crystallin alone (confocal microscopy): > 4 fold

Reference: article PMC2045701, “Confocal fluorescence resonance energy transfer microscopy study of protein-protein interactions of lens crystallins in living cells” (Molecular Vision, 2007)
